Among the data in article PMC2900198 are stoichiometry N values, retold here.

Experiment [1] has as its target Grass carp reovirus (GCRV) coat protein VP5 (grass carp reovirus (GCRV)). Nature of the experiment: cryo-EM structure.
The target of experiment [2] is Grass carp reovirus (GCRV) turret protein VP1 (grass carp reovirus (GCRV)). Nature of the experiment: cryo-EM structure.

In turn, “Grass carp reovirus (GCRV) coat protein VP5 (natural protein)” displayed a stoichiometry N in experiment [1] of 3.

On to “Grass carp reovirus (GCRV) turret protein VP1 (natural protein)”, for which the stoichiometry N in experiment [2] amounted to 5.

In general, stoichiometry N refers to the number of molecules, sites or subunits per partner or assembly.
